Measured values reported in patent US20160009772A1, “CELL PENETRATING PEPTIDES WHICH BIND IRF5” (priority 2012, published 2016).

Target: Wild type IRF5 (222-467) (human) (UniProt Q13568)
Assay: TR-FRET

Sequence of Wild type IRF5 (222-467) (Q13568 232-477): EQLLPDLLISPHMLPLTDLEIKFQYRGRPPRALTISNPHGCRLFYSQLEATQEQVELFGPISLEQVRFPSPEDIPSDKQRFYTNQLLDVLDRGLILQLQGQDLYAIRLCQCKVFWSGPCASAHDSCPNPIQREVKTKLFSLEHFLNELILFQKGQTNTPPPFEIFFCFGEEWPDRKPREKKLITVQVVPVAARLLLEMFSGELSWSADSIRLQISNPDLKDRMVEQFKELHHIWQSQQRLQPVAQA

Row | Substance | Kd
1 | IRF5(222-467, S430D), S430D phosphomimetic construct of IRF5 (222-467) (from UniProt Q13568 222-467) | 1.58 µM
2 | Wild type IRF5 (222-467) (from UniProt Q13568 232-477) | 4.21 µM
